# Measurements from patent publication US20260365696A1, “INHIBITORS OF PTP1B / NCK1 INTERACTION AND METHODS OF MAKING AND USING SAME” (Radella Pharmaceuticals LLC, priority 2023, published 2026).
# Read-outs that look alike come from different tables or passages of the source. Non-standard residues stand in square brackets, D forms with d. No end group written: not given here. pGlu = O=C1CC[C@@H](C(=O)O)N1
# Key:
# Experiment in all cases: ITC
# NCK1 SH3-2 domain [1] = target: T1, NCK1 SH3-2 domain (human)
# T1 chain: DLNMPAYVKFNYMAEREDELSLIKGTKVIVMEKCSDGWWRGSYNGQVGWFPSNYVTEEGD
# NCK1 SH3-2 domain [2] = target: T1, NCK1 SH3-2 domain
# NCK1 SH3-2 domain [3] = target: T1, NCK1 SH3-2 domain
# NCK1 SH3-2 domain [4] = target: T1, NCK1 SH3-2 domain
# NCK1 SH3-2 domain [5] = target: T1, NCK1 SH3-2 domain
# NCK1 SH3-2 domain [6] = target: T1, NCK1 SH3-2 domain
# NCK1 SH3-2 domain [7] = target: T1, NCK1 SH3-2 domain
Binder,binding result (NCK1 SH3-2 domain [1]),Kd (NCK1 SH3-2 domain [2]) [µM],Kd (NCK1 SH3-2 domain [4]) [µM],further results
Ac-SPAKGEPSLPEK-NH2 [MH133],no binding,–,–,–
Ac-PPRPPKR-NH2 [MD18],–,< 300,–,Kd (NCK1 SH3-2 domain [3]): < 193 µM
Ac-APRPPKR-NH2 [MH047],–,< 300,< 300,Kd (NCK1 SH3-2 domain [5]): < 300 µM
[pGlu]RPPKR-NH2 [MH044],–,–,–,binding result (NCK1 SH3-2 domain [6]): no binding
Ac-PRPPKR-NH2 [MD20],–,< 300,–,Kd (NCK1 SH3-2 domain [7]): < 300 µM; Kd (NCK1 SH3-2 domain [3]): < 193 µM
EPRPPKR-NH2 (not fully specified (residue 1)) [MH043],–,–,< 300,–
Ac-PPRPPKR-NHEt [MH046],–,–,< 300,–
H-PAVPPRP-NH2 [MH081],no binding,–,–,–
Ac-PAVPPRP-NH2 [MH082],no binding,–,–,–
